Laboratory results from PMC7296346, “Dynamic Palmitoylation of the Sodium-Calcium Exchanger Modulates Its Structure, Affinity for Lipid-Ordered Domains, and Inhibition by XIP” (Cell Reports, 2020).

How the values were obtained:
[1] = biological target: C739A NCX1, full length, tetracycline-inducible in FT-293 cells (canine); assay: cross-linking; FT-293 cells expressing tetracycline-inducible NCX1 treated with 0.1 mM BMH for 5 min at 37°C in 10 mM Tris-HCl pH 7.2, 150 mM NaCl; lysed in 1% Triton X-100; SDS-PAGE
[2] = biological target: the molecule itself; assay: as above

Row | stoichiometry N [1] | Molecule | stoichiometry N [2]
1 | 2 | C739A NCX1, full length, tetracycline-inducible in FT-293 cells (natural protein) | –
2 | – | wild-type (WT) NCX1, full length, tetracycline-inducible in FT-293 cells (natural protein, canine, UniProt P23685 33-970, looked up, palmitoylated at cysteine 739, Na-Ca exchanger 1, canine, NCX1.1 cDNA; Forms a dimer (cross-linking); The cell line is from Reilly et al., 2015; source: in cells or in lysate) ETEMEGEGNETGECTGSYYCKKGVILPIWEPQDPSFGDKIARATVYFVAMVYMFLGVSIIADRFMSSIEVITSQEKEITIKKPNGETTKTTVRIWNETVSNLTLMALGSSAPEILLSVIEVCGHNFTAGDLGPSTIVGSAAFNMFIIIALCVYVVPDGETRKIKHLRVFFVTAAWSIFAYTWLYIILSVISPGVVEVWEGLLTFFFFPICVVFAWVADRRLLFYKYVYKRYRAGKQRGMIIEHEGDRPSSKTEIEMDGKVVNSHVDNFLDGALVLEVDERDQDDEEARREMARILKELKQKHPEKEIEQLIELANYQVLSQQQKSRAFYRIQATRLMTGAGNILKRHAADQARKAVSMHEVNTEVAENDPVSKIFFEQGTYQCLENCGTVALTIIRRGGDLTNTVFVDFRTEDGTANAGSDYEFTEGTVVFKPGETQKEIRVGIIDDDIFEEDENFLVHLSNVKVSSEASEDGILEANHVSALACLGSPSTATVTIFDDDHAGIFTFEEPVTHVSESIGIMEVKVLRTSGARGNVIVPYKTIEGTARGGGEDFEDTCGELEFQNDEIVKTISVKVIDDEEYEKNKTFFLEIGEPRLVEMSEKKALLLNELGGFTITGKYLYGQPVFRKVHAREHPIPSTVITIAEEYDDKQPLTSKEEEERRIAEMGRPILGEHTKLEVIIEESYEFKSTVDKLIKKTNLALVVGTNSWREQFIEAITVSAGEDDDDDECGEEKLPSCFDYVMHFLTVFWKVLFAFVPPTEYWNGWACFIVSILMIGILTAFIGDLASHFGCTIGLKDSVTAVVFVALGTSVPDTFASKVAATQDQYADASIGNVTGSNAVNVFLGIGVAWSIAAIYHAANGEQFKVSPGTLAFSVTLFTIFAFINVGVLLYRRRPEIGGELGGPRTAKLLTSCLFVLLWLLYIFFSSLEAYCHIKGF | 2
